Key:
[1] = system: primary CD34+ cells from patients with CALR mutant myelofibrosis; experiment: TPO-independent megakaryocyte colony formation on collagen-based medium (MegaCult); type: cell-based, human
From the text: Patient samples were collected with informed consent from the South Australian Cancer Research Biobank (SACRB: Adelaide, Australia). Primary CD34+ stem/progenitor cells from peripheral blood samples from patients with JAK2^V617F or CALR mutant myelofibrosis were purified by flow cytometry using CD34-APC antibody, anti-human CD45RA Brilliant Violet 605, anti-CD90 FITC, anti-human CD123-PE, anti-human CD38 PE-Cy7, or with CD34-APC antibody, anti-human CD3 FITC, anti-human CD19-PE (clone H1B19) and anti-human CD14 PE-Cy7.
For megakaryocyte differentiation assays, CD34+ cells derived from cord blood or from patient peripheral blood mononuclear fractions were plated in Megacult (MegaCult™-C Collagen and Medium with Lipids) with added IL-3 and IL-6 (10 ng/ml) in the presence or absence of 50 ng/mL TPO. Cells were plated at an initial density of 1800 cells/well and cultured for 12 days at 37° C. and 5% CO2. […] Culture media was replenished every 3 days and cells were assessed for megakaryocyte differentiation on day 12 using anti-human CD41/61 PE-Cy7 (Clone A2A9/6) and CountBright beads (Thermo Fisher) to enumerate cell numbers. […] Cells were seeded at approximately 100 cells per well and were cultured in the presence of 20 μg/mL 4D7 or control IgG antibody and scored for colony and blast forming units at 12-14 days.

[2] = system: TF-1 TpoR CALR^del61 cells in NSG mice; experiment: Bone marrow engraftment xenograft model; type: in vivo
Method: All procedures were approved by the South Australian Health and Medical Research Animal Ethics Committee (Protocol SAM21-018). Bone marrow engraftment model: 4-6 week old NSG mice were x-ray irradiated with 150 cGy and 5×10^5 cells (TF-1-TpoR CALR^del61) or 5×10^4 cells (100 nM ruxolitinib resistant TF-1 TpoR CALR^del61) were intravenously injected into mice. […] Tail vein bleeds were taken at 3 weeks and analysed via flow cytometry to determine human leukaemia content in the peripheral blood. Leukemic cells were PI-, mCD45.1, hCD33+, zsGreen+. Mice were monitored daily and euthanized once clinical symptoms were observed. At the time of euthanasia, cardiac puncture was performed to obtain both peripheral blood and serum for analysis. Additionally, bone marrow from both femurs, spine and spleens were analysed for leukemic content as detailed above. Chloroma model: 4-6 week old NSG mice were anaesthetised by isoflurane inhalation and shaved on the left back/flank and 1×10^7 cells were injected into the mice. Cells were pre-treated with 20 μg/mL IgG or 4D7 for 1 hour prior to injection. […] Tumour progression was assessed through caliper measurements every 2 days. Mice were euthanised once tumours began to impede movement, show signs of ulceration or if any measurement of the tumour exceeded 30 mm (length, width or depth).

[3] = Pharmacokinetic measurement of serum level of 4D7; type: in vivo, mice; conditions: 12.5 mg/kg intraperitoneal injection; 48 hours post injection
Method: A. Illustration showing bone marrow NSG engraftment model with TPO-independent TF-1 TpoR CALR^del61 cells treated with 4D7 or IgG control twice weekly, starting 7 days after engraftment via intraperitoneal injection and final measurements taken from euthanized mice. B. Pharmacokinetic measurements of serum level of 4D7 in mice after intraperitoneal injection at 1, 24, 48, 72 and 110 hours since administration. C. Percentage of human CD33+myeloid cells measured in peripheral blood at 3 weeks post-tail vein engraftment (n=5 mice per treatment). D. Kaplan-Meier survival curve of bone marrow engraftment model showing improved survival of mice treated with 4D7 compared with IgG control commencing I week after tail vein injection (n=5 mice per treatment). […]
All procedures were approved by the South Australian Health and Medical Research Animal Ethics Committee (Protocol SAM21-018). […] Tail vein bleeds were taken at 3 weeks and analysed via flow cytometry to determine human leukaemia content in the peripheral blood. […] Mice were monitored daily and euthanized once clinical symptoms were observed. […] Additionally, bone marrow from both femurs, spine and spleens were analysed for leukemic content as detailed above. […] Tumour progression was assessed through caliper measurements every 2 days. […]

B1: 4D7: rat monoclonal IgG2a antibody against the mutant CALR neoepitope; VH SEQ ID NO: 5, VL SEQ ID NO: 7 (antibody, listed as Rattus rattus, V domains shown)
VH: QVQLQQSGAELAKPGSSVKISCKASGYTFTNYDMSWIKQRPGQALEWIGAINPGNGVTDYNEKFRGKATLTVDKSSSTAFMQLSSLTPEDTAVYHCAREYRDNYGYFDYWGQGVMVTVSS
VL: DIVLTQTPVSLSVTLGDQASISCRSSQSLEYSDGYTYLDWFLQKPGQSPQLLIYEVSSRFSGVPDRFIGRGSGTDFTLKISRVEPEDLGVYYCFQATHDPFTFGSGTKLEIK
decrease of primary TPO-independent megakaryocyte colonies (colony-forming unit-mega) ([1]; 20 μg/mL vs IgG, n=4 patient samples): 46%
size of megakaryocyte colonies ([1]; patient with a type 2 mutation): substantially smaller
peripheral blood engraftment of human CD33+ myeloid cells ([2]; 3 weeks, 12.5 mg/kg twice weekly i.p. starting day 7, P=0.01): 0.04%
survival, log-rank hazard ratio ([2]; 4D7 vs IgG, 12.5 mg/kg twice weekly, P=0.003): 0.24
serum concentration [3]: more than 100 μg/mL

Reference: patent US20250236667A1, “ANTIBODIES TO MUTANT CALRETICULIN AND USES THEREOF” (CENTRAL ADELAIDE LOCAL HEALTH NETWORK INC, priority 2021, published 2025)
